Laboratory results: the MegaScale stability set (Tsuboyama et al. 2023)

B1: 5KPH (parent)
chain: EEKRQVKQVAKEKLLEQSPNSKVQVRRVQKQGNTIRVELELRTNGKKENYTVEVERQGNTWTVKRITRT

Variants of: B1
Experiment: folding stability dG (cDNA display proteolysis); higher = more stable
Settings: PBS, room temperature

In order of rising “folding stability dG” value:
1. V37H  -0.646 kcal/mol
2. V37Q  -0.216 kcal/mol
3. V37N  -0.204 kcal/mol
4. V63K  0.466 kcal/mol
5. V37S  0.645 kcal/mol
6. V63D  0.956 kcal/mol
7. Q29P  1.02 kcal/mol
8. Y50K  1.24 kcal/mol
9. V63G  1.35 kcal/mol
10. V23K  1.37 kcal/mol
11. L14H  1.79 kcal/mol
12. V23Q  1.79 kcal/mol
13. V37W  1.87 kcal/mol
14. V28G  1.87 kcal/mol
15. L14Y  1.95 kcal/mol
16. K11P  2.01 kcal/mol
17. V63Y  2.01 kcal/mol
18. V23S  2.02 kcal/mol
19. V6K  2.05 kcal/mol
20. L14G  2.07 kcal/mol
21. Y50H  2.1 kcal/mol
22. V28H  2.16 kcal/mol
23. K64P  2.28 kcal/mol
24. Q8P  2.29 kcal/mol
25. L39G  2.35 kcal/mol
26. K11N  2.38 kcal/mol
27. Q8W  2.56 kcal/mol
28. S18G  2.56 kcal/mol
29. I35G  2.57 kcal/mol
30. V6H  2.57 kcal/mol
31. Y50M  2.58 kcal/mol
32. A10G  2.6 kcal/mol
33. G32I  2.67 kcal/mol
34. V23P  2.68 kcal/mol
35. A10M  2.73 kcal/mol
36. K11G  2.74 kcal/mol
37. G32V  2.74 kcal/mol
38. A10T  2.76 kcal/mol
39. Q8Y  2.78 kcal/mol
40. V63F  2.78 kcal/mol
41. V6Q  2.78 kcal/mol
42. I35Q  2.79 kcal/mol
43. V63P  2.8 kcal/mol
44. E16V  2.86 kcal/mol
45. G58I  2.86 kcal/mol
46. V63L  2.88 kcal/mol
47. A10S  2.92 kcal/mol
48. T34D  2.93 kcal/mol
49. V63C  2.96 kcal/mol
50. E53A  2.99 kcal/mol
51. T67G  3.01 kcal/mol
52. E16R  3.08 kcal/mol
53. R68E  3.13 kcal/mol
54. G58Y  3.15 kcal/mol
55. E16H  3.17 kcal/mol
56. Y50I  3.17 kcal/mol
57. E48K  3.22 kcal/mol
58. S18D  3.23 kcal/mol
59. T51H  3.24 kcal/mol
60. K11W  3.24 kcal/mol
61. G58M  3.24 kcal/mol
62. G32N  3.26 kcal/mol
63. E16C  3.27 kcal/mol
64. G32D  3.3 kcal/mol
65. T67D  3.3 kcal/mol
66. V6C  3.31 kcal/mol
67. T51R  3.33 kcal/mol
68. K11F  3.33 kcal/mol
69. G32F  3.33 kcal/mol
70. G58L  3.33 kcal/mol
71. R68C  3.34 kcal/mol
72. E48R  3.35 kcal/mol
73. G58S  3.36 kcal/mol
74. R27T  3.37 kcal/mol
75. T34Q  3.38 kcal/mol
76. I35C  3.39 kcal/mol
77. G58H  3.4 kcal/mol
78. N44V  3.47 kcal/mol
79. T43R  3.47 kcal/mol
80. Q8L  3.51 kcal/mol
81. R27L  3.53 kcal/mol
82. R68F  3.53 kcal/mol
83. R36C  3.57 kcal/mol
84. S18E  3.57 kcal/mol
85. T51C  3.59 kcal/mol
86. V23A  3.6 kcal/mol
87. N59S  3.62 kcal/mol
88. E53T  3.62 kcal/mol
89. T60L  3.63 kcal/mol
90. T43D  3.65 kcal/mol
91. T43V  3.65 kcal/mol
92. Q8D  3.67 kcal/mol
93. G58N  3.7 kcal/mol
94. G58E  3.7 kcal/mol
95. K64F  3.7 kcal/mol
96. K47A  3.71 kcal/mol
97. R27H  3.71 kcal/mol
98. I35L  3.71 kcal/mol
99. K3G  3.73 kcal/mol
100. I35A  3.73 kcal/mol
101. K47W  3.75 kcal/mol
102. T51Y  3.75 kcal/mol
103. Q29D  3.75 kcal/mol
104. G58D  3.75 kcal/mol
105. Q8I  3.76 kcal/mol
106. N44S  3.76 kcal/mol
107. E53D  3.76 kcal/mol
108. T60D  3.77 kcal/mol
109. N59T  3.77 kcal/mol
110. N44K  3.77 kcal/mol
111. N44H  3.79 kcal/mol
112. K11A  3.8 kcal/mol
113. S18A  3.8 kcal/mol
114. N44A  3.81 kcal/mol
115. N59Y  3.82 kcal/mol
116. S18K  3.83 kcal/mol
117. K64A  3.83 kcal/mol
118. T34M  3.85 kcal/mol
119. T43S  3.85 kcal/mol
120. T43Y  3.88 kcal/mol
121. Q29C  3.9 kcal/mol
122. V28F  3.91 kcal/mol
123. T43Q  3.91 kcal/mol
124. T34Y  3.92 kcal/mol
125. N59M  3.92 kcal/mol
126. S18I  3.93 kcal/mol
127. S18V  3.94 kcal/mol
128. R68M  3.95 kcal/mol
129. Q29E  3.96 kcal/mol
130. T67V  3.96 kcal/mol
131. T51W  3.98 kcal/mol
132. T67M  3.98 kcal/mol
133. T51L  3.99 kcal/mol
134. K11L  3.99 kcal/mol
135. N59G  4 kcal/mol
136. K30R  4 kcal/mol
137. N59D  4.01 kcal/mol
138. K30L  4.03 kcal/mol
139. E53F  4.03 kcal/mol
140. S18M  4.05 kcal/mol
141. K47V  4.06 kcal/mol
142. Q29V  4.08 kcal/mol
143. T60I  4.11 kcal/mol
144. V28M  4.12 kcal/mol
145. K3Q  4.19 kcal/mol
146. K3H  4.2 kcal/mol
147. N49W  4.2 kcal/mol
148. K3C  4.21 kcal/mol
149. E53Y  4.21 kcal/mol
150. R68L  4.21 kcal/mol
151. T51V  4.22 kcal/mol
152. K30A  4.22 kcal/mol
153. T67F  4.23 kcal/mol
154. V6I  4.24 kcal/mol
155. K3N  4.25 kcal/mol
156. K30Q  4.25 kcal/mol
157. K64M  4.28 kcal/mol
158. K64T  4.29 kcal/mol
159. R36F  4.35 kcal/mol
160. K30I  4.35 kcal/mol
161. T67Y  4.38 kcal/mol
162. K64I  4.47 kcal/mol
163. R36Y  4.54 kcal/mol
164. Q29W  4.58 kcal/mol
165. R26L  4.62 kcal/mol
166. K30W  4.64 kcal/mol
167. S18Y  4.74 kcal/mol
